One test concerns the target T1, BCMA_B15x Ile22_Ala43 (human, UniProt Q02223).
T1 construct: limits given in the sample name
T1 yeast-displayed fusion (looked up): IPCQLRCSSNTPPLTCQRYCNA
Description: yeast cell ELISA, sample BCMA_B15x Ile22_Ala43. How it is done:
(§1) The YSD vector (pPNL6) was from The Pacific Northwest National Laboratory, USA. […] The HRP activity was assayed with substrate TMB (tetramethyl benzidine) according to the manufacture's conditions and read at OD₄₅₀.
(§2) The assays were performed as described in the Materials and Method, and OD₄₅₀ was measured. Note that OD₄₅₀ reads equal or less than 0.100 were scored as zero for clarity.

A further test addresses T2, BCMA_B5x Gln38_Ala54 (human, UniProt Q02223).
T2 construct: limits given in the sample name
T2 yeast-displayed fusion (looked up): QRYCNASVTNSVKGTNA
The test is described as follows: yeast cell ELISA, sample BCMA_B5x Gln38_Ala54. How it is done:
as §1, §2

For another test, the target named is T3, BCMA_B4x Arg27_Ala54 (human, UniProt Q02223).
T3 construct: limits given in the sample name
T3 yeast-displayed fusion (looked up): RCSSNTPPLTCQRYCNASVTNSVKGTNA
The test is described as follows: yeast cell ELISA, sample BCMA_B4x Arg27_Ala54. The protocol:
as §1, §2
(ELISA stands for enzyme-linked immunosorbent assay.)

Test [1] addresses T4, BCMA_B14x Gly6_Pro23 (C21S) (human, UniProt Q02223).
T4 construct: limits and substitution as printed in the sample name
T4 yeast-displayed fusion (looked up): GQCSQNEYFDSLLHASIP
Description: yeast cell ELISA, sample BCMA_B14x Gly6_Pro23 (C21S). The protocol: as §1, §2

Test [2] addresses T5, BCMA_B13x Gly6 (C8S)_Pro23 (human, UniProt Q02223).
T5 construct: limits and substitution as printed in the sample name
T5 yeast-displayed fusion (looked up): GQSSQNEYFDSLLHACIP
Description: yeast cell ELISA, sample BCMA_B13x Gly6 (C8S)_Pro23. The protocol:
as §1, §2

For a further test, the target named is T6, BCMA_B3x Ile22_Ala54 (human, UniProt Q02223).
T6 construct: limits given in the sample name
T6 yeast-displayed fusion (looked up): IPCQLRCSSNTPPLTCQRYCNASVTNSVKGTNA
Description: yeast cell ELISA, sample BCMA_B3x Ile22_Ala54. How it is done:
as §1, §2

For the next test, the target named is T7, BCMA_B8x Met1_Pro23 (human, UniProt Q02223).
T7 construct: limits given in the sample name
T7 yeast-displayed fusion (looked up): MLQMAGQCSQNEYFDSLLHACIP
Description: yeast cell ELISA, sample BCMA_B8x Met1_Pro23. How it is done: as §1, §2

Test [3] addresses T8, BCMA_B16x Ile22_Ala43 (C41S) (human, UniProt Q02223).
T8 construct: limits and substitution as printed in the sample name
T8 yeast-displayed fusion (looked up): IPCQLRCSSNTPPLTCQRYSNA
Description: yeast cell ELISA, sample BCMA_B16x Ile22_Ala43 (C41S). How it is done: as §1, §2

The target of the next test is T9, BCMA_B10x Gly6_Ala43 (human, UniProt Q02223).
T9 construct: limits given in the sample name
T9 yeast-displayed fusion (looked up): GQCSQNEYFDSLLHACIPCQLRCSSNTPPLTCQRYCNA
The test is described as follows: yeast cell ELISA, sample BCMA_B10x Gly6_Ala43. How it is done: as §1, §2

In another test the target is T10, hBCMA-ECD-FC5VHH (human, UniProt Q02223 1-54, biotinylated in vivo ; biotinylated in vivo on the tag of the carrier part, which is not in the letters).
T10 construct: Made in HEK-293 cells, monomeric SEC fraction; The methods say about 500 RU captured on an SA chip; the results say immobilised on a CM5 chip; also called hBCMA-FC5; human BCMA-ECD; not shown: FC5 VHH carrier, any linker, and the His and biotinylation tags
T10 sequence: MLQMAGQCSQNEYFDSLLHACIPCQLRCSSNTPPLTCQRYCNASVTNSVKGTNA
The test is described as follows: SPR, 1:1 binding model. The protocol: For surface Plasmon resonance, 15 selected VHHs were passed though size exclusion columns, Superdex 75 (GE Healthcare), respectively, in 10 mM HEPES, pH 7.4, containing 150 mM NaCl, 3 mM EDTA, monomeric sdAb fractions were collected and protein concentrations were determined by measuring absorbance at 280 nm (A280). Analysis were performed with Biacore T200 instrument (GE Healthcare). All measurements were carried out at 25° C. in 10 mM HEPES, pH 7.4, containing 150 mM NaCl, 3 mM EDTA and 0.005% surfactant P20 (GE Healthcare). Approximately 500 RUs of the recombinant monomeric BCMA-ECD (obtained after SEC purification of the BCMA-ECD-FC5VHH) were captured on SA sensor chip (GE Healthcare) at a flow rate of 5 uL/min. Various concentration of the monomeric VHHs (20-500 nM) were injected over BCMA-ECD surface, respectively using an SA surface as a reference at a flow rate of 40 μL/min. Surfaces were generated by washing with running buffer. Data were analysed with BIAevaluation 4.1 software.
The monomeric fraction of all 15 VHHs were used for SPR experiment where the human BCMA-ECD or mouse BCMA was immobilized onto the CM5 dextran chip and various VHH concentration (20-500 nM) were passed over the sensor chip.
On the technique in general: In SPR one partner is held on a chip, and binding of the other changes the refractive index at the surface.

Test [4] addresses T11, human BCMA on target cells (Raji, Ramos, Jeko-1, RPMI8226) (human, UniProt Q02223 1-184).
T11 construct: also called TNFRSF17; BCMA-positive target cells
T11 sequence: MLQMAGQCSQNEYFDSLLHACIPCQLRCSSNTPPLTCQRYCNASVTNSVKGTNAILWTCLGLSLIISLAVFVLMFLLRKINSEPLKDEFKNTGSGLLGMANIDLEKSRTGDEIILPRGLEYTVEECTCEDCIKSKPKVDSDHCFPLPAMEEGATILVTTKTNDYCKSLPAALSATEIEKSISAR
The test is described as follows: flow cytometry on RPMI8226 cells (BCMA-high); VHH detected with AlexaFluor647 anti-VHH antibodies. How it is done:
Purified VHH were used to assess the target specificity of the sdBCMA Ab by flow cytometry. The highly BCMA expressing human myeloma cell line RPM18226, the BCMA-low human Burkitt's lymphoma cell line Raji, and the BCMA-negative Jurkat human T cell leukemia cell line were incubated with 5 fold dilution of biotin labelled sdBCMA VHH from 7.5-0.06 μg/mL. The binding of the BCMA-targeted VHH to cell surface BCMA was detected by flow cytometry using a mixture of two broad reactivity mouse anti-VHH antibodies conjugated with AlexaFluor647.
On the technique in general: A flow cytometer gives signals particle by particle.

Another test has as its target T12, mBCMA-ECD-FC5VHH (mouse, UniProt O88472 1-49, biotinylated in vivo ; biotinylated in vivo on the tag of the carrier part, which is not in the letters).
T12 construct: also called mouse BCMA; murine BCMA ECD; not shown: FC5 VHH carrier, any linker, and the His and biotinylation tags
Description: SPR (Biacore T200), VHH over mouse BCMA-ECD surface, 25 C.

T12 sequence (O88472 1-49 limits assumed): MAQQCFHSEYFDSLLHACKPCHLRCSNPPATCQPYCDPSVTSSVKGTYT

B1: hBCMA-H2 (VHH)
VHH: QVKAEESGGGLVRPGDSLRLTCTISGRTSNNFVMAWFRRTPGKEREYVATRVWSGSTPYYHDSVKGRFTISIDDDKNTAYLQMNSLKPEDTAVYYCAATKDIMSRSYDYWGLGTQVTVSS
modifications: single biotin on the C-terminal AviTag
notes: also called VHH-H2; not shown: C-terminal His tag and AviTag biotinylation signal from pMRO vector
Regarding B1, the binding result (in the test with BCMA_B15x Ile22_Ala43; with BCMA_B5x Gln38_Ala54; with BCMA_B4x Arg27_Ala54; in test [1]; in test [2]; with BCMA_B3x Ile22_Ala54) was “no binding” each time. The binding result in test [3] is listed as “no binding”. For the same molecule, the OD450 with BCMA_B8x Met1_Pro23 came to 2.89; with BCMA_B10x Gly6_Ala43, 2.6.

B2: hBCMA-VcMRo8(VF7/VF8) (VHH)
VHH: QVQLVESGGGLVQPGGSLRLSCAASGTIFSRNALAWFRQAPGKQRELVAHITIGGTTVYKDSVKGRFTISRDNAKNTVYLQMDALKPEDTAVYYCNADPEGSWNWVRRGDYWGQGTQVTVS
modifications: single biotin on the C-terminal AviTag
notes: also called V8; hBCMA-V8; not shown: C-terminal His tag and AviTag biotinylation signal from pMRO vector
B2: the binding result (with BCMA_B15x Ile22_Ala43; with BCMA_B5x Gln38_Ala54; with BCMA_B4x Arg27_Ala54; in [1]; in [2]; with BCMA_B3x Ile22_Ala54) was “no binding” throughout. The binding result (with BCMA_B8x Met1_Pro23; in test [3]) was “no binding” each time. Also, the OD450 in the test with BCMA_B10x Gly6_Ala43 is 2.32.

B3: hBCMA-A6 (VHH)
VHH: QVQLVESGGGLVQPGGSLRLSCVASGSIFDAYNMGWYRQAPGKQRELVAAISSAGTTFYRDSVKGRFTVSRNNAKNTMYLQMDRLRPEDTAVYDCNGAPWGDAPVKVEDWGQGTQVTVSS
modifications: single biotin on the C-terminal AviTag
notes: also called VHH-A6; not shown: C-terminal His tag and AviTag biotinylation signal from pMRO vector
What is called Kd is a measure of binding affinity in units of concentration. A high value points to weaker binding. B3: the binding result (with BCMA_B15x Ile22_Ala43; with BCMA_B5x Gln38_Ala54; with BCMA_B4x Arg27_Ala54; in test [1]; in [2]; with BCMA_B3x Ile22_Ala54) was “no binding” each time. In addition, the binding result (in the test with BCMA_B8x Met1_Pro23; in [3]) was “no binding” throughout. In the test with hBCMA-ECD-FC5VHH, this molecule registered a Kd of 4 nM. For the same molecule, the OD450 with BCMA_B10x Gly6_Ala43 is 1.66.

B4: hBCMA-VcMRo3 (V3) (VHH)
VHH: EVQLEQSGGGLVQTGDSLRLTCTIPGRASNHFVMAWFRRAPGKEREFVATRVWSGGSPYYSDSVKGRFAIAIDNAKNTAYLQMNSLKPEDTAVYYCAATKDIMSRSYDYWGLGTQVTVSS
modifications: single biotin on the C-terminal AviTag
notes: also called hBCMA-V3; not shown: C-terminal His tag and AviTag biotinylation signal from pMRO vector
The term EC50 (read off the curve) denotes the midpoint of the concentration-response curve. Low readings indicate an effect from little substance, high ones a need for much substance. Consider B4, for which the binding result (with BCMA_B15x Ile22_Ala43; with BCMA_B5x Gln38_Ala54; with BCMA_B4x Arg27_Ala54; in test [1]; in the test with BCMA_B3x Ile22_Ala54; in test [3]) was “no binding” throughout. Moreover, the results for the OD450 with BCMA_B8x Met1_Pro23 and with BCMA_B10x Gly6_Ala43 were 2.09 and 2.69, respectively. Besides, in test [4], the “EC50 (read off the curve)” value was approximately 2 nM.

B5: hBCMA-E7 (VHH)
VHH: QVQLVESGGGLVQTGDSLRLACTISGRATDHFVMAWFRRAPGKEREYVATRVWSGGSPYYLDSVKGRFAIAIDNAKNTAYLQMNNLKPEDTAVYYCAATKDIMSRSYDYWGLGTQVTVSS
modifications: single biotin on the C-terminal AviTag
notes: Llama VHH made in E. coli BL21(DE3), IMAC purified, monomeric SEC fraction used; also called VHH-E7; VHH # 1-B1; not shown: C-terminal His tag and AviTag biotinylation signal from pMRO vector
For orientation: koff means the first-order rate constant of dissociation. Low values mean a long-lived complex, high ones a short-lived complex. By kon is commonly meant the rate constant with which the complex forms. High values mean faster complex formation, low ones slower complex formation. For B5, the binding result (in the test with BCMA_B15x Ile22_Ala43; with BCMA_B5x Gln38_Ala54; with BCMA_B4x Arg27_Ala54; in test [1]; in the test with BCMA_B3x Ile22_Ala54; in test [3]) was “no binding” each time. For the same molecule, the dissociation constant Kd with hBCMA-ECD-FC5VHH worked out at 0.0462 nM; with mBCMA-ECD-FC5VHH, 67.5 nM. Further, the OD450 with BCMA_B8x Met1_Pro23 was 2.45; with BCMA_B10x Gly6_Ala43 it was 1.8. The “EC50 (read off the curve)” value in [4] is approximately 0.9 nM. The molecule also returned a koff in the test with mBCMA-ECD-FC5VHH of 0.0514 s⁻¹. The kon with mBCMA-ECD-FC5VHH is 762000 M⁻¹ s⁻¹.

B6: hBCMA-H4 (VHH)
VHH: QVQLVESGGGLVQPGGSLRLSCAASGDSFGAYAMGWYRQAPGKQRELVAAISSAGNTFYRDSVKGRFTVSRNNAKNAMYLQMDRLKPEDTAVYQCNGAPWADEPVKVWNWGLGTQVTVSS
modifications: single biotin on the C-terminal AviTag
notes: also called VHH-H4; not shown: C-terminal His tag and AviTag biotinylation signal from pMRO vector
With B6, the binding result (in the test with BCMA_B15x Ile22_Ala43; in the test with BCMA_B5x Gln38_Ala54; with BCMA_B4x Arg27_Ala54; in [1]; in test [2]; with BCMA_B3x Ile22_Ala54) was “no binding” throughout. Besides, the binding result (in the test with BCMA_B8x Met1_Pro23; in test [3]) was “no binding” each time. For the same molecule, the OD450 in the test with BCMA_B10x Gly6_Ala43 is 2.23.

The record behind these values is patent publication US20250000976A1 (NATIONAL RESEARCH COUNCIL OF CANADA, published 2025).
